From publication PMC10397247

Legend:
[1] = target: T1, 4H687-bH; test: two-hybrid library CCNG1;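 note: natural log of median RNA to DNA barcode read ratio; higher means stronger binding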
T1 chain: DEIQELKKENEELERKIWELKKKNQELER

[2] = target: T2, 4H4001-bH; test: two-hybrid library CCNG1;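 note: natural log of median RNA to DNA barcode read ratio; higher means stronger binding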
T2 chain: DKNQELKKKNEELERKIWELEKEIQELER

[3] = target: T3, 4H918-bH; test: two-hybrid library CCNG1;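 note: natural log of median RNA to DNA barcode read ratio; higher means stronger binding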
T3 chain: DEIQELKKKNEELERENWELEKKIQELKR

[4] = target: T4, 4H72-bH; test: two-hybrid library CCNG1;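 note: natural log of median RNA to DNA barcode read ratio; higher means stronger binding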
T4 chain: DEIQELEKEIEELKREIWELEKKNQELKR

[5] = target: T5, 4H3843-bH; test: two-hybrid library CCNG1;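 note: natural log of median RNA to DNA barcode read ratio; higher means stronger binding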
T5 chain: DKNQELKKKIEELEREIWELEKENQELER

[6] = target: T6, 4H687-bA; test: two-hybrid library CCNG1;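 note: natural log of median RNA to DNA barcode read ratio; higher means stronger binding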
T6 chain: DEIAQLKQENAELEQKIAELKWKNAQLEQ

[7] = target: T7, 4H568-bH; test: two-hybrid library CCNG1
T7 chain: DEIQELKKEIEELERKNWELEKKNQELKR

[8] = target: T8, 4H967-bH; test: two-hybrid library CCNG1
T8 chain: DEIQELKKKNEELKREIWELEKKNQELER

[9] = target: T9, 4H370-bH; test: two-hybrid library CCNG1
T9 chain: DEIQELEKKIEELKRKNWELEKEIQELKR

[10] = target: T10, 4H462-bH; test: two-hybrid library CCNG1
T10 chain: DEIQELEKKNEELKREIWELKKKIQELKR

[11] = target: T11, 4H3782-bH; test: two-hybrid library CCNG1
T11 chain: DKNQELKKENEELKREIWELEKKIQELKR

[12] = target: T12, 4H797-bH; test: two-hybrid library CCNG1
T12 chain: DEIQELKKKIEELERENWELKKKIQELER

[13] = target: T13, 4H883-bH; test: two-hybrid library CCNG1
T13 chain: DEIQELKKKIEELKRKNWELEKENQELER

[14] = target: T14, 4H953-bH; test: two-hybrid library CCNG1
T14 chain: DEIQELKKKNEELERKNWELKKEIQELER

[15] = target: T15, 4H607-bH; test: two-hybrid library CCNG1
T15 chain: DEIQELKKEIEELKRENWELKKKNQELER

[16] = target: T16, O7-bP; test: two-hybrid library CCNG1
T16 chain: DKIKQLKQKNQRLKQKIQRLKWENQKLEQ

[17] = target: T17, O9-bP; test: two-hybrid library CCNG1
T17 chain: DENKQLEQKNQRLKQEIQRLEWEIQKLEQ

[18] = target: T18, O8-bP; test: two-hybrid library CCNG1
T18 chain: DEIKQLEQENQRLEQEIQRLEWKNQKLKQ

[19] = target: T19, 4H932-bH; test: two-hybrid library CCNG1
T19 chain: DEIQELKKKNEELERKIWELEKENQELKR

[20] = target: T20, 4H3364-bH; test: two-hybrid library CCNG1
T20 chain: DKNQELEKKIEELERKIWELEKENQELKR

[21] = target: T21, 4H3381-bH; test: two-hybrid library CCNG1
T21 chain: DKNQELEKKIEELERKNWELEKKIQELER

[22] = target: T22, 4H796-bH; test: two-hybrid library CCNG1
T22 chain: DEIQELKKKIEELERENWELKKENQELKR

[23] = target: T23, 4H949-bH; test: two-hybrid library CCNG1
T23 chain: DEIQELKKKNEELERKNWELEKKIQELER

[24] = target: T24, 4H56-bH; test: two-hybrid library CCNG1
T24 chain: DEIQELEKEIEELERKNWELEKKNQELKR

[25] = target: T25, 4H3297-bH; test: two-hybrid library CCNG1
T25 chain: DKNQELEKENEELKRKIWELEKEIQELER

[26] = target: T26, 4H349-bH; test: two-hybrid library CCNG1
T26 chain: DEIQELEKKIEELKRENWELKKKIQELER

[27] = target: T27, 4H730-bH; test: two-hybrid library CCNG1
T27 chain: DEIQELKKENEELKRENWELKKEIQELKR

[28] = target: T28, 4H535-AA; test: two-hybrid library CCmax; settings: mean of both orientations
T28 chain: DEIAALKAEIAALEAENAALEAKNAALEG

[29] = target: T29, 4H3782-AA; test: two-hybrid library CCmax; settings: mean of both orientations
T29 chain: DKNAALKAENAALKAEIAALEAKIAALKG

[30] = target: T30, 4H465-AA; test: two-hybrid library CCmax; settings: mean of both orientations
T30 chain: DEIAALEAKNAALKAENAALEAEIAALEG

[31] = target: T31, 4H3705-AA; test: two-hybrid library CCmax
T31 chain: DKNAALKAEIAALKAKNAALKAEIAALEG

[32] = target: T32, 4H58-AA; test: two-hybrid library CCmax; settings: mean of both orientations
T32 chain: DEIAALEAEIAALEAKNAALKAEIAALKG

[33] = target: T33, 4H_BCR; test: two-hybrid library CCmax; settings: mean of both orientations
T33 chain: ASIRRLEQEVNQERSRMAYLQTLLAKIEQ

[34] = target: T34, 4H486-AA; test: two-hybrid library CCmax; settings: mean of both orientations
T34 chain: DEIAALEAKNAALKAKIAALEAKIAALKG

[35] = target: T35, 4H895-AA; test: two-hybrid library CCmax; settings: mean of both orientations
T35 chain: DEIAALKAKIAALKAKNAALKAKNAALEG

[36] = target: 4H_GCN4; test: two-hybrid library CCmax; settings: mean of both orientations
[37] = target: T36, 4H_APH; test: two-hybrid library CCmax; settings: mean of both orientations
T36 chain: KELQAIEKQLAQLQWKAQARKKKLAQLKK

[38] = target: GCN2_T; test: two-hybrid library CCmax
[39] = target: T37, O6-bP; test: two-hybrid library CCNG1
T37 chain: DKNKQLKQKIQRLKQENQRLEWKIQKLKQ

[40] = target: T38, O5-bP; test: two-hybrid library CCNG1
T38 chain: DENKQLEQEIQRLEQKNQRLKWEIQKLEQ

[41] = target: T39, O7; test: two-hybrid library CC0; settings: mean of both orientations
T39 chain: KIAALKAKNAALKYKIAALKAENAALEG

[42] = target: T40, O9; test: two-hybrid library CC0; settings: mean of both orientations
T40 chain: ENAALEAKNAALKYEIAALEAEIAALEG

[43] = target: T41, O8; test: two-hybrid library CC0; settings: mean of both orientations
T41 chain: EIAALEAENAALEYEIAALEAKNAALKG

[44] = target: T42, 4H918-bA; test: two-hybrid library CCNG1
T42 chain: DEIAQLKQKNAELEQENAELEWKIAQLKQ

[45] = target: T43, 4H575-bA; test: two-hybrid library CCNG1
T43 chain: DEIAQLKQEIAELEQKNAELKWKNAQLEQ

[46] = target: T44, 4H953-bA; test: two-hybrid library CCNG1
T44 chain: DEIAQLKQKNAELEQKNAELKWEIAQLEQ

[47] = target: T45, 4H780-bA; test: two-hybrid library CCNG1
T45 chain: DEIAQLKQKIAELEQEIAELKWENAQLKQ

[48] = target: T46, 4H3926-bA; test: two-hybrid library CCNG1
T46 chain: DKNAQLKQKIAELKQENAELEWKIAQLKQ

[49] = target: T47, 4H346-bA; test: two-hybrid library CCNG1
T47 chain: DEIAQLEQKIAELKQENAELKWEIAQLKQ

[50] = target: T48, 4H797-bA; test: two-hybrid library CCNG1
T48 chain: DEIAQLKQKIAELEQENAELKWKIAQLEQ

[51] = target: T49, 4H968-bA; test: two-hybrid library CCNG1
T49 chain: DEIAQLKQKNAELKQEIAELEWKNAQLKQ

[52] = target: T50, 4H457-bA; test: two-hybrid library CCNG1
T50 chain: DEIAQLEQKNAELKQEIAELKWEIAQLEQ

[53] = target: T51, 4H855-bA; test: two-hybrid library CCNG1
T51 chain: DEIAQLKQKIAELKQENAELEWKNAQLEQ

[54] = target: T52, 4H4073-bA; test: two-hybrid library CCNG1
T52 chain: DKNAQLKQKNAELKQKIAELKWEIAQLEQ

[55] = target: T53, 4H683-bA; test: two-hybrid library CCNG1
T53 chain: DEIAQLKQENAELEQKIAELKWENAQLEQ

[56] = target: T54, 4H754-bA; test: two-hybrid library CCNG1
T54 chain: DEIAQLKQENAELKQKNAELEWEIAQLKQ

[57] = target: T55, O7-bS; test: two-hybrid library CCNG1
T55 chain: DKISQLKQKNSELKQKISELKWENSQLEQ

[58] = target: T56, O8-bS; test: two-hybrid library CCNG1
T56 chain: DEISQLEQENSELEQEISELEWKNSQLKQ

[59] = target: T57, O9-bS; test: two-hybrid library CCNG1
T57 chain: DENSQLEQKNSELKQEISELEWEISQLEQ

4H_GCN4, sequence (chain, as listed by the source): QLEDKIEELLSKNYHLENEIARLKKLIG

DEIQELEKKIEELKRKNWELEKEIQELKR [4H370-bH]
interaction score [1]: -1.39
interaction score [2]: 0.0634
interaction score [3]: -0.0355
interaction score [4]: -0.56
interaction score [5]: 0.946
interaction score [6]: 0.534
interaction score [7]: 0.618
interaction score [8]: 0.239
interaction score [9]: 0.649
interaction score [10]: 0.842
interaction score [11]: 0.858
interaction score [12]: 0.396
interaction score [13]: -0.56
interaction score [14]: 0.739
interaction score [15]: -0.999

DKIKQLKQKNQRLKQKIQRLKWENQKLEQ [O7-bP]
interaction score [16]: -1.43
interaction score [17]: -1.09
interaction score [18]: 1.3

DKNQELEKENEELKRKIWELEKEIQELER [4H3297-bH]
interaction score [19]: -0.844
interaction score [20]: -0.362
interaction score [21]: -0.113
interaction score [22]: -0.673
interaction score [23]: -1.66
interaction score [9]: 0.804
interaction score [24]: -1.32
interaction score [25]: 0.885
interaction score [26]: -0.0353
interaction score [27]: -0.0968

DKNAALKAEIAALKAKNAALKAEIAALEG [4H3705-AA]
interaction score [28]: -0.26
interaction score [29]: -1.26
interaction score [30]: -1.21
interaction score [31]: -1.2
interaction score [32]: 0.517
interaction score [33]: -1.43
interaction score [34]: -1.65
interaction score [35]: -1.78
interaction score [36]: -1.4
interaction score [37]: -2.68
interaction score [38]: -1.92

DKNKQLKQKIQRLKQENQRLEWKIQKLKQ [O6-bP]
interaction score [16]: -0.618
interaction score [17]: -0.21
interaction score [39]: -0.702
interaction score [18]: -2.38

DENKQLEQEIQRLEQKNQRLKWEIQKLEQ [O5-bP]
interaction score [16]: -1.28
interaction score [40]: -1.57
interaction score [17]: -1.33
interaction score [39]: 2.35
interaction score [18]: -0.837

KIAALKAKNAALKYKIAALKAENAALEG [O7]
interaction score [41]: -2.81
interaction score [42]: -2.77
interaction score [43]: 1.47

DEIAQLEQKIAELKQENAELKWEIAQLKQ [4H346-bA]
interaction score [44]: -0.428
interaction score [45]: -0.114
interaction score [46]: -1.6
interaction score [47]: -0.692
interaction score [48]: 1.57
interaction score [49]: 1.48
interaction score [50]: -0.562
interaction score [51]: -0.648
interaction score [52]: -0.833
interaction score [53]: 0.0345
interaction score [54]: -0.388
interaction score [55]: 0.357
interaction score [56]: -0.388

DKISQLKQKNSELKQKISELKWENSQLEQ [O7-bS]
interaction score [57]: -1.01
interaction score [58]: 0.93
interaction score [59]: -1.07
